Experimental data reported in patent US20050009137A1 (CEDARS SINAI MEDICAL CENTER, published 2005).

Assays:
recombinant human ERα = molecular target: T1, recombinant human ERα (human, UniProt P03372 1-595); assay: EMSA with consensus ERE probe, recombinant human ERα and extract of IEBP transfectant; supershift with anti-hsp27 antibody
T1 construct: also called estrogen receptor alpha
T1 sequence (looked up): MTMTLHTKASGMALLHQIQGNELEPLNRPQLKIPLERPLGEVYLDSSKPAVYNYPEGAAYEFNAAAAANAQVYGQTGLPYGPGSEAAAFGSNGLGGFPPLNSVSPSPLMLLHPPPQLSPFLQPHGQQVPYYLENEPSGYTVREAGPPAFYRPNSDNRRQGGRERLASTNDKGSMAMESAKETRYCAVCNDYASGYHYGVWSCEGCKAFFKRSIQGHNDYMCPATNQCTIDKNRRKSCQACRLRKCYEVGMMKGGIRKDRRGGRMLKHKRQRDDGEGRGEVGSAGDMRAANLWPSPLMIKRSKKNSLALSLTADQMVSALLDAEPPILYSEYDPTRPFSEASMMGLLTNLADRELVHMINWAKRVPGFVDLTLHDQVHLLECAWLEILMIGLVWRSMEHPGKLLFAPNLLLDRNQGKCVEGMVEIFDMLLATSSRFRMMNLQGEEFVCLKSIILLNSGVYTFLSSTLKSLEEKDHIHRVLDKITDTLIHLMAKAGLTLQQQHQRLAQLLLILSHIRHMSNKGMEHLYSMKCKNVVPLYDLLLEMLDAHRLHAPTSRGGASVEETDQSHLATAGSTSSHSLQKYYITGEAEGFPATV

GST protein alone = molecular target: T2, GST protein alone (UniProt P08515 1-218 = GST); assay: GST pull-down from protein extracts of cells overexpressing IEBP, SDS-PAGE and blot with anti-hsp27 antibody
T2 construct: Control in the GST pull-down; also called GST alone
T2 sequence (P08515 whole entry): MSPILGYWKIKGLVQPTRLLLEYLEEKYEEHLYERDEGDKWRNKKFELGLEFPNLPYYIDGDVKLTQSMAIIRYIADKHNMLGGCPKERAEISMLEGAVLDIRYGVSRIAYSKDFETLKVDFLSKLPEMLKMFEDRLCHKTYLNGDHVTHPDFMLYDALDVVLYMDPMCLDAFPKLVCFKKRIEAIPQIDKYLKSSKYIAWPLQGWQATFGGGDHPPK
Procedure: Postnuclear extracts were applied to the GST beads and incubated for 1 hour. The loaded GST-extract mixture was then washed repetitively (5×) with PBS buffer containing 5 mM DTT and 1 mM PMSF and resuspended in 2×SDS sample buffer and boiled for 5 minutes. Denatured proteins were resolved on 4-20% SDS-PAGE gel, transferred to a nitrocellulose membrane, probed with appropriate antibody (obtained from Santa Cruz) and visualized by ECL.
Protein extracts of cells overexpressing IEBP were incubated with a GST-receptor ligand-binding domain fusion protein representing the ER. Control assays were employed using a glucocorticoid receptor (GR)-fusion protein or GST protein alone.

binding result (recombinant human ERα): binds
binding result (GST protein alone): no binding
B1: intracellular estradiol binding protein (IEBP) of New World primate B95-8 cells (other)
chain: MTERHVPFSLLQSPSWDPFRDWYPHSHLFDQAFGMPRLPEEWSQWFGTSSWPGYVRPLPPTTVEGPAVAAPAYSRALNQQLSSGVSETADRWRVSLDVNHFAPEELTVKTKDGVVEITGKHEERQDEHGFISRCFTRKYSLPPGVDPTQVSPSLSPEGTLTVDAPMSKPATQSNEITIPVTFESRAQLGGPEAAKSDRSAAK
notes: also called hsp27-like IEBP; hsp 27-related IEBP
